Data published in patent US9422349.

Molecular target: GLP-1 receptor on RIN-m5F rat insulinoma cells (rat) (UniProt P32301)
Assay: cell-based or functional assay

UniProt P32301, sequence (P32301 22-463): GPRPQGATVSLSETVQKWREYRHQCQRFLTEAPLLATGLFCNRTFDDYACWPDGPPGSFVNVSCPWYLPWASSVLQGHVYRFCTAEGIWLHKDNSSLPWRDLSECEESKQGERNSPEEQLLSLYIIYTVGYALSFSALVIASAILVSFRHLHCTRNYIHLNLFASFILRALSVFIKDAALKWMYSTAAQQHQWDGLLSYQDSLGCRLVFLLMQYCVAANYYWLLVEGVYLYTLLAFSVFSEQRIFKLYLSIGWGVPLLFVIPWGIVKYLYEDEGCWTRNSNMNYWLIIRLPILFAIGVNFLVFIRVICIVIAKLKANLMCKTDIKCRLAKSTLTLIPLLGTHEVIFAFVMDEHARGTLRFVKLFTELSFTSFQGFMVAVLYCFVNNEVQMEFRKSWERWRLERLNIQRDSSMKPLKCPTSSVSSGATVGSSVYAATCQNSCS

“imidazoacetyl-exendin-4 (from UniProt P26349 48-86) (peptide)” was tested, and the cAMP production in RIN-m5F cells, EC50 was 1.2 nM and the cAMP production in RIN-m5F cells, ratio vs Exendin4 (ratio vs Exendin4) was 100.
“desamino-histidyl-exendin-4 (from UniProt P26349 48-86) (peptide)” was tested, and the cAMP production in RIN-m5F cells, EC50 was 0.95 nM and the cAMP production in RIN-m5F cells, ratio vs Exendin4 (ratio vs Exendin4) was 127.
